Laboratory results: the supplement of paper PMC9732359
± gives the uncertainty stated by the source.

Experiment: protein stability index of a GFP-peptide fusion (yeast GPS) (PSI 1-4); higher = more stable; sorted into four equal gates, so the index is relative within each strain
Procedure, shortened: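 The protein stability index of a peptide was calculated by multiplying its read frequency in each gate by that gate's number and adding the products. The peptides were tiled 17-residue stretches of yeast proteins, fused downstream of GFP on a Cherry-expressing plasmid and carried in yeast as a pooled library. Mid-log cultures in leucine-free medium were sorted into four equal gates by GFP/Cherry ratio, and each gate's plasmids were PCR-amplified and Illumina-sequenced.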

Sequence: AIRKAPHNSKSLGFLQQ [RPN3]
- protein stability index (doa10∆): 2.9 ± 0.082
- protein stability index (pdr5∆): 2.7 ± 0.086
- protein stability index (san1∆): 2.84 ± 0.083
- protein stability index (ubr1∆): 2.54 ± 0.13

Sequence: KIFTPNLLQISAAELER [SNF5]
- protein stability index (doa10∆): 1.77 ± 0.064
- protein stability index (pdr5∆): 1.97 ± 0.061
- protein stability index (san1∆): 1.76 ± 0.1
- protein stability index (ubr1∆): 1.33 ± 0.066

Sequence: VIMALMLMSKIGDVDGL [POP5]
- protein stability index (doa10∆): 1.49 ± 0.044
- protein stability index (pdr5∆): 2 ± 0.053
- protein stability index (san1∆): 1.84 ± 0.1
- protein stability index (ubr1∆): 1.97 ± 0.047

Sequence: KQDCVDWFTYSYFYRRI [BRR2]
- protein stability index (doa10∆): 1.69 ± 0.036
- protein stability index (pdr5∆): 1.32 ± 0.032
- protein stability index (san1∆): 1.51 ± 0.053
- protein stability index (ubr1∆): 1.41 ± 0.029

Sequence: IPMSKTIKDLVGGKSTV [FAS2]
- protein stability index (doa10∆): 2.96 ± 0.11
- protein stability index (pdr5∆): 2.8 ± 0.089
- protein stability index (san1∆): 2.85 ± 0.072
- protein stability index (ubr1∆): 3.04 ± 0.06

Sequence: LFGNNNTNNINNSSSGM [YGL172W/NUP49]
- protein stability index (doa10∆): 3.38 ± 0.16
- protein stability index (pdr5∆): 3.42 ± 0.14
- protein stability index (san1∆): 3 ± 0.12
- protein stability index (ubr1∆): 3.13 ± 0.13

Sequence: KMLSCAGADRLQQGMRG [RPL10]
- protein stability index (doa10∆): 3.43 ± 0.12
- protein stability index (pdr5∆): 3.28 ± 0.13
- protein stability index (san1∆): 2.98 ± 0.11
- protein stability index (ubr1∆): 3.32 ± 0.085

Sequence: SIRRQDYINELSNSNRF [REC8]
- protein stability index (doa10∆): 2.82 ± 0.17
- protein stability index (pdr5∆): 3.21 ± 0.12
- protein stability index (san1∆): 3.4 ± 0.092
- protein stability index (ubr1∆): 3.2 ± 0.12

Sequence: RRKFDPSSSENVMTPRE [UBP6]
- protein stability index (pdr5∆): 1.99 ± 0.11
- protein stability index (san1∆): 2.45 ± 0.22
- protein stability index (ubr1∆): 2.96 ± 0.23

Sequence: GSRTTTNHVLEVFSVLG [RPO31]
- protein stability index (doa10∆): 2.93 ± 0.13
- protein stability index (pdr5∆): 2.76 ± 0.14

Sequence: KKMTKKAKRSNLYTPKA [PRP8]
- protein stability index (doa10∆): 2.9 ± 0.059
- protein stability index (pdr5∆): 2.19 ± 0.038
- protein stability index (san1∆): 2.39 ± 0.059
- protein stability index (ubr1∆): 2.3 ± 0.031

Sequence: EYRDLYTNSVELRSLSK [YMR129W/POM152]
- protein stability index (doa10∆): 3.18 ± 0.082
- protein stability index (pdr5∆): 3.27 ± 0.072
- protein stability index (san1∆): 3.24 ± 0.065
- protein stability index (ubr1∆): 2.79 ± 0.29

Sequence: IEKWTANLLPARQFGYV [RPS22A]
- protein stability index (doa10∆): 1.6 ± 0.075
- protein stability index (pdr5∆): 1.92 ± 0.088
- protein stability index (san1∆): 1.8 ± 0.15
- protein stability index (ubr1∆): 2.14 ± 0.17

Sequence: KTATVKINKKLNKAGKP [RPL38]
- protein stability index (doa10∆): 2.73 ± 0.17
- protein stability index (pdr5∆): 3.21 ± 0.11
- protein stability index (san1∆): 3.22 ± 0.098
- protein stability index (ubr1∆): 3.19 ± 0.1

Sequence: SSQPLEPLSDTEEPDLA [DSN1]
- protein stability index (doa10∆): 2.74 ± 0.062
- protein stability index (pdr5∆): 2.69 ± 0.06
- protein stability index (san1∆): 3.25 ± 0.037
- protein stability index (ubr1∆): 2.36 ± 0.07

Sequence: PGFDEFQLIDMKDKEIN [CSI1]
- protein stability index (doa10∆): 3.34 ± 0.14
- protein stability index (pdr5∆): 3 ± 0.11
- protein stability index (san1∆): 3.41 ± 0.045
- protein stability index (ubr1∆): 3.45 ± 0.061

Sequence: RLTFKPWVVYLQILAML [YMR129W/POM152]
- protein stability index (doa10∆): 1.23 ± 0.07
- protein stability index (pdr5∆): 1.22 ± 0.06
- protein stability index (san1∆): 1.1 ± 0.11
- protein stability index (ubr1∆): 1.05 ± 0.049

Sequence: KRRFGELMDRTGLKLYS [RPP1]
- protein stability index (doa10∆): 2.21 ± 0.18
- protein stability index (pdr5∆): 2.98 ± 0.12
- protein stability index (san1∆): 2.23 ± 0.11
- protein stability index (ubr1∆): 2.45 ± 0.11

Sequence: GSSAGMNGRSLTYAQQQ [SNF6]
- protein stability index (doa10∆): 2.99 ± 0.083
- protein stability index (pdr5∆): 3.15 ± 0.081
- protein stability index (san1∆): 3.03 ± 0.058
- protein stability index (ubr1∆): 3.24 ± 0.044

Sequence: QLLDIAEFKKENLADLD [LIN1]
- protein stability index (doa10∆): 1.48 ± 0.092
- protein stability index (pdr5∆): 1.55 ± 0.097
- protein stability index (san1∆): 1.24 ± 0.12
- protein stability index (ubr1∆): 2.95 ± 0.096

Sequence: GAETDELSMIMEHFSQQ [RPS12]
- protein stability index (doa10∆): 2.88 ± 0.088
- protein stability index (pdr5∆): 3.25 ± 0.1
- protein stability index (san1∆): 3.35 ± 0.059
- protein stability index (ubr1∆): 3.23 ± 0.089

Sequence: SLTQSVCDLALRFGEGA [PUP2]
- protein stability index (doa10∆): 2.66 ± 0.19
- protein stability index (pdr5∆): 3.34 ± 0.21
- protein stability index (ubr1∆): 3.11 ± 0.21

Sequence: SRIRVKIEGCISQVSSI [RPB7]
- protein stability index (doa10∆): 1.6 ± 0.1
- protein stability index (pdr5∆): 1.75 ± 0.083
- protein stability index (san1∆): 1.64 ± 0.11
- protein stability index (ubr1∆): 1.76 ± 0.074

Sequence: SKNMSKSPSLTAQKYPI [YMR153W/NUP53]
- protein stability index (doa10∆): 2.46 ± 0.051
- protein stability index (pdr5∆): 2.46 ± 0.044
- protein stability index (san1∆): 2.48 ± 0.055
- protein stability index (ubr1∆): 2.51 ± 0.043

Sequence: IAAYIRRHRNPDLQFIV [SMC1]
- protein stability index (doa10∆): 1.16 ± 0.048
- protein stability index (pdr5∆): 1.21 ± 0.047
- protein stability index (san1∆): 1.2 ± 0.079
- protein stability index (ubr1∆): 1.07 ± 0.04

Sequence: ELDQFWQEYSSVFKGGM [SRP14]
- protein stability index (doa10∆): 2.68 ± 0.073
- protein stability index (pdr5∆): 2.66 ± 0.079
- protein stability index (san1∆): 2.86 ± 0.098
- protein stability index (ubr1∆): 3.13 ± 0.081
